From patent US6994974B1, “Intracellular amyloid-beta binding (ERAB) polypeptide-related assays” (The trustees of Columbia University in the city of New York, priority 1997, dated 2006)

Assays:
[1] = target: T1, TrcHis-ERAB polypeptide (Homo sapiens, UniProt Q99714); experiment: Binding of ^125I-amyloid-beta peptide (1–40) to TrcHis-ERAB polypeptide adsorbed to microtiter wells; details: unlabelled competitor at 10 μM; tracer 100 nM; FIG. 2E
T1 construct: made in house; host or cells: E. coli
T1 sequence (Q99714 1-261): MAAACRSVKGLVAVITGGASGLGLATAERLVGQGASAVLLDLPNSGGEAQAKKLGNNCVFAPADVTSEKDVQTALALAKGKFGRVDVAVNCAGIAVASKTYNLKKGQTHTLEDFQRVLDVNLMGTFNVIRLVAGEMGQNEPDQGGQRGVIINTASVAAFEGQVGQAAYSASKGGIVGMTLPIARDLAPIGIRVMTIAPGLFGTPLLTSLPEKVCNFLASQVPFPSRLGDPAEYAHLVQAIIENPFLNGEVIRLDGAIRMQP
Procedure: FIGS. 2A, 2B, 2C, 2D, 2E, 2F, and 2G. […] FIG. 2A. SDS-PAGE (12%; reduced) followed by immunoblotting of TrcHis-ERAB polypeptide (FIG. 2A, lane 1; 2 μg) and TrcHis-chloramphenicol acetyltransferase (CAT; FIG. 2A, lane 2; 2 μg) fusion proteins using anti-ERAB polypeptide IgG (3 μg/ml). […] FIGS. 2B and 2C. […] Binding was analyzed by nonlinear least squares analysis using the method of Klotz and Hunston (60). FIG. 2E. […] FIGS. 2F and 2G. […] 0 indicates wells coated with albumin alone. […] Control TrcHis-CAT construct (Invitrogen) was also used to transform E. coli and the fusion protein was purified as above. Antibody to ERAB polypeptide was prepared by immunizing rabbits with ERAB polypeptide-derived peptides, corresponding to residues 100–116 and 133–147, conjugated to keyhole limpet hemocyanin. […] (for ERAB polypeptide) or overnight at 4° C. […] Unbound radioactivity was removed by washing wells five times with ice cold phosphate-buffered saline containing Tween 20 (0.05%), and bound radioactivity was eluted by incubation with Nonidet P-40 (1%).

[2] = system: ERAB polypeptide in neuroblastoma cells; experiment: Cellular distribution of ERAB polypeptide in neuroblastoma cells by immunofluorescence; format: cell-based, human; details: peptide added to neuroblastoma cells; amyloid-beta peptide (1–42) 1 μM; FIGS. 4F, 4G
Procedure: FIGS. 4A, 4B, 4C, 4D, 4E, 4F, 4G, 4H, and 4I. Expression of ERAB polypeptide in cultured cells: localization to the endoplasmic reticulum and change in distribution following addition of amyloid-beta peptide. FIG. 4A. Immunoblotting of ERAB polypeptide in human neuroblastoma SK-N-SH (FIG. 4A, lane 1) and HeLa (FIG. 4A, lane 2) cells. Cell extracts (50 μg protein/lane) were subjected to immunoblotting using anti-ERAB polypeptide IgG (3 μg/ml). FIGS. 4B, 4C, and 4D. […] Scale bar=25 μm. FIG. 4E. Subcellular fractionation of ERAB nucleic acid-transfected human neuroblastoma cells. Transfected cells (5×10^8) were pelletted and fractionated in a series of sucrose steps (38%, 30% and 20%) by ultracentrifugation (100,000 for 3 hrs). […] Neuroblastoma cells were incubated in buffer alone or in the presence of amyloid-beta peptide (1–42; 1 μM), and the distribution of ERAB polypeptide was determined by immunofluorescence with anti-ERAB polypeptide IgG. […]
These observations also posed an apparent paradox, for, how could amyloid-beta peptide, most of which is extracellular, interact with a polypeptide associated with endoplasmic reticulum? […] Second, it was determined that ERAB polypeptide became associated with amyloid-beta peptide, and that amyloid-beta peptide-induced effects on ERAB polypeptide were not likely mediated by an indirect mechanism. […]

| Substance | Competition for ^125I-amyloid-beta peptide (1–40) binding to TrcHis-ERAB polypeptide [1] | Change in cellular distribution of ERAB polypeptide [2] |
| --- | --- | --- |
| Arg-Gly-Asp-Ser (RGDS) | had no effect |  |
| amyloid-beta peptide (1–20): synthetic amyloid-beta peptide (1–20) | blocked binding |  |
| amyloid-beta peptide (1–42): exogenous amyloid-beta peptide (1–42) |  | marked change in the cellular localization |
| amyloid-beta peptide (25–35): synthetic amyloid-beta peptide (25–35) (GSNKGAIIGLM) | had no effect |  |
